# Biological target: FGF receptor on COS cells
# Test: cell-based or functional assay
Substance,transduction efficiency (GFP positive autofluorescent COS cells) against control phage MEGFP3 [fold],phagemid particle-dependent transfection of COS-1 cells (fold molar excess)
FGF2 display phage MF2/1G3 (FGF2-pIII fusion on M13 type 3 phage) (from UniProt P09038 2-155; P69168 19-424),10,–
free FGF2 (non-biotinylated) (from UniProt P09038 2-155) (ligand),–,100
